This experiment concerns the target MERS-CoV wild type receptor-binding domain (MERS-wtRBD), Twin Strep tagged (MERS-CoV). Description: ELISA (FIG. 9). In general terms: An ELISA detects its analyte on a solid surface through an enzyme-linked reagent.

This is an account of results in US20240386992A1 (MAX DELBR CK CENTRUM F R MOLEKULARE MEDIZIN IN DER …, published 2024).

B1: D12 (antibody, V domains shown)
VH: EVKLVESGGGLVKPGGSLKLSCAASGFTFSSYAMSWVRQTPEKRLEWVATISSGGTYTYYPDSVKGRFTISRDNAENTLYLQMSSLRSEDTAMYYCVRDGNSMDYWGQGTSVTVSS
VL: DIQMTQTTSSLSASLGDRVTIICRASQDINNYLNWYQQKPDGTVKLLIYYTSRLHSGVPSRFSGSGSGSDYSLTISNLEQEDIATYFCQQANTLPPTFGAGTKLELR
For the molecule B1, the binding result is listed as “binds”.

B2: LCA60 (antibody, V domains shown)
VH: EVQLLESGGGLVKPGGSLRLSCEASGLTFSNVWMSWVRQAPGKGLEWVGRIKRKSEGATTDYGAPVKGRFTLSRDDSKNTVYLQMNSLKIDDTAVYYCSTLTRGGDVWSSSYYFDYWGQGALVTVSS
VL: QSALTQPASVSGSPGQSITISCTGTSSDVGTYDLVSWYQQHPGKSPKLMIYADIKRPSGVSHRFSGSKSGNTASLTISGLQSADEADYYCCLYAGSSTSVIFGGGTKVT
As to B2, the binding result is “binds”.
